{
  "source": "paper PMC7496394",
  "molecules": {"B1": {"name": "psbE E4 (dsDNA)", "DNA 1": "ATTGACGATCTCACAAAGATGCAATCT", "DNA 2": "AGATTGCATCTTTGTGAGATCGTCAAT"}, "B2": {"name": "dsRNA random probe (dsRNA)", "RNA 1": "GAUAUGCGCGAAUUCCUGUAGAACGAACACUAGAAGAAA", "RNA 2": "UUUCUUCUAGUGUUCGUUCUACAGGAAUUCGCGCAUAUC"}, "B3": {"name": "ndhA A10 (dsDNA)", "DNA 1": "TATTGGGAATCATAACAGGTGTACTAG", "DNA 2": "CTAGTACACCTGTTATGATTCCCAATA"}, "B4": {"name": "dsDNA random probe (dsDNA)", "DNA 1": "GATATGCGCGAATTCCTGTAGAACGAACACTAGAAGAAA", "DNA 2": "TTTCTTCTAGTGTTCGTTCTACAGGAATTCGCGCATATC"}, "B5": {"name": "psbE E5 (dsDNA)", "DNA 1": "TTAATTTACTTATTCATCTTTTACAGA", "DNA 2": "TCTGTAAAAGATGAATAAGTAAATTAA"}},
  "key": {"[1]": {"biological_target": "recombinant and mature MDA1 (Arabidopsis thaliana) (UniProt F4JVI3)", "assay": "SEC"}, "rMDA1 (mature MDA1) [2]": {"biological_target": "T1, rMDA1 (mature MDA1) (Arabidopsis thaliana, UniProt F4JVI3 44-493)", "T1 sequence": "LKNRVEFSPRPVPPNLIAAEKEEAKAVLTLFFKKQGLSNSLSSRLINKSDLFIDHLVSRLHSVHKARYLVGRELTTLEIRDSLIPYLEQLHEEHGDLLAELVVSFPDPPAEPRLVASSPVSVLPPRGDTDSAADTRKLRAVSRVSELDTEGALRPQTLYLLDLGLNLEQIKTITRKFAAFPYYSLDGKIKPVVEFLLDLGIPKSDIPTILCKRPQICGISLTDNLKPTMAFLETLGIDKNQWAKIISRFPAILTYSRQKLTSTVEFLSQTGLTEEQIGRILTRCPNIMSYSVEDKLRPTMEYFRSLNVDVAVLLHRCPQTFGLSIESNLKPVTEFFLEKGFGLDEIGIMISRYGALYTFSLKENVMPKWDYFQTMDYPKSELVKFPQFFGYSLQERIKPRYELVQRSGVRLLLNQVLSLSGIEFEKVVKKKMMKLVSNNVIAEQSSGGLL", "assay": "EMSA"}, "rMDA1 (mature MDA1) [3]": {"biological_target": "T1, rMDA1 (mature MDA1)", "assay": "EMSA", "remark": "listed apart in the source"}, "rMDA1 (mature MDA1) [4]": {"biological_target": "T1, rMDA1 (mature MDA1)", "assay": "EMSA", "remark": "listed apart in the source"}, "rMDA1 (mature MDA1) [5]": {"biological_target": "T1, rMDA1 (mature MDA1)", "assay": "EMSA", "remark": "listed apart in the source"}, "rMDA1 (mature MDA1) [6]": {"biological_target": "T1, rMDA1 (mature MDA1)", "assay": "EMSA", "remark": "listed apart in the source"}},
  "note": "Like-named read-outs stand apart in the source and are kept apart here.",
  "data": [
    {"molecule": "recombinant and mature MDA1 (from UniProt F4JVI3 130-493) (domain or fragment)", "values": [
      {"measurement": "stoichiometry N", "setting": "[1]", "value": 2}
    ]},
    {"molecule": "B1", "values": [
      {"measurement": "binding result", "setting": "rMDA1 (mature MDA1) [2]", "value": "binds"}
    ]},
    {"molecule": "UCUGAUUCGAGGGGGUCCCGUUGAAC (ssRNA)", "note": "[3' psbJ sRNA]", "values": [
      {"measurement": "binding result", "setting": "rMDA1 (mature MDA1) [3]", "value": "no binding"}
    ]},
    {"molecule": "GAUAUGCGCGAAUUCCUGUAGAACGAACACUAGAAGAAA (ssRNA)", "note": "[ssRNA random probe]", "values": [
      {"measurement": "binding result", "setting": "rMDA1 (mature MDA1) [4]", "value": "binds"}
    ]},
    {"molecule": "B2", "values": [
      {"measurement": "binding result", "setting": "rMDA1 (mature MDA1) [5]", "value": "no binding"}
    ]},
    {"molecule": "GUAGACUCUAAAAAUACCCUUGGUACUUU (ssRNA)", "note": "[5' psbE sRNA]", "values": [
      {"measurement": "binding result", "setting": "rMDA1 (mature MDA1) [3]", "value": "no binding"}
    ]},
    {"molecule": "B3", "values": [
      {"measurement": "binding result", "setting": "rMDA1 (mature MDA1) [2]", "value": "binds"}
    ]},
    {"molecule": "GUUUUAAACAAGAGACAGAAACAAAGA (ssRNA)", "note": "[3' ndhA sRNA]", "values": [
      {"measurement": "binding result", "setting": "rMDA1 (mature MDA1) [3]", "value": "no binding"}
    ]},
    {"molecule": "GATATGCGCGAATTCCTGTAGAACGAACACTAGAAGAAA (ssDNA)", "note": "[ssDNA random probe]", "values": [
      {"measurement": "binding result", "setting": "rMDA1 (mature MDA1) [5]", "value": "no binding"}
    ]},
    {"molecule": "B4", "values": [
      {"measurement": "binding result", "setting": "rMDA1 (mature MDA1) [6]", "value": "binds"}
    ]},
    {"molecule": "B5", "values": [
      {"measurement": "binding result", "setting": "rMDA1 (mature MDA1) [2]", "value": "no binding"}
    ]},
    {"molecule": "UGGCUGAUAUUAUGACGAUAC (ssRNA)", "note": "[5' ndhA sRNA]", "values": [
      {"measurement": "binding result", "setting": "rMDA1 (mature MDA1) [3]", "value": "no binding"}
    ]}
  ]
}
